Numbering of substitutions follows the chain as printed.
B1: TM-6 (antibody, V domains shown)
VH: QVQLQQSGAELVKPGASVKLSCKASGYTFTEYTIHWVKQRSGQGLEWIGWFYPGSTYIDYNEKFKDKATLTADKSSSTVYLELSRLTSEDSAVYFCARHEEDYSNWFPFWGQGTLVTVSA
VL: DIQMSQSSSYLSVSLGGRVTITCKASDHINNWLAWYQQKPGNAPRLLISGATSLETGVPSRFSGSGSGKDYTLSITSLQTEDVATYYCQQYWSSPYTFGGGTKLEIK
notes: mouse IgG (hybridoma)
B2: TM-8 (antibody, V domains shown)
VH: QIQLVQSGPELKKPGETVKISCKASGYTFTDYPMHWVKQAPGKGFKWMGVIYTDTGEPKYAEVFKGRFAFSLETSASTAYLQINNLKNEDTATYFCVRRLAYWGQGTLVTVSA
VL: DIKMTQSPSSMYASLGERVTITCKASQDINSYLSWFQQKPGKSPKTLIFRANRLVDGVPSRFSGSGSGQDYSLTISSLEYEDMGIYYCLQYDEFPLTFGAGTKLEMK
notes: mouse IgG (hybridoma)
B3: TM-5 (antibody, V domains shown)
VH: QVQLQQSGTELARPGASVKVSCKASGYIFTTYGITWVKQRGGQGLEWIGEIYPRSDNTYYNEKFKDKATLTADKSSSTAYMELRSLTSEDSAVYFCARSKGSGTGDYWGQGTTVTVSS
VL: DIQMTQSPASLSASVGETVTITCRASENIYIYLAWYQQKQGKTPQLLVYNGKMLAENVPSRFSGSGSGTQFSLKINSLQPEDFGSYYCQHHYGSPPAFGAGTKLELK
B4: TM-2 (antibody, V domains shown)
VH: HIQLVQSGPELKKPGETVKISCKASGYTFTEYPMHWVKQAPGKGFRWMGMIYTNTGEPTYAAEFKGRFAFSLETSASTGYLQINNLKNEDSATYFCVTAGYWGQGTLVTVSA
VL: QIVLTQSPAILSASPGEKVTMTCRASSSVSYIHWFLQKPGSSPKPWIYATSNLASGVPFRFIGSGSGTSYSLTISGVEAEDSATYYCQQWSSNPSTFGAGTKLELK
B5: TM-7 (antibody, V domains shown)
VH: EVQLQQSGPVLVKPGPPVKISCKASGFTFTDYYIHWVKLSHGKSLEWIGLVYPYNGDTDYNQKFKGKATLTVDTSSSTAYMELNSLTSEDSAVYYCARTYYANSPDYWGQGTTVTVSS
VL: DIVMTQSPSSLSVSAGEKVTMSCKSSQSLLNSGNQRNYLAWYQQKPGQPPKLLIYGASTRESGVPDRFTGSGSGTDFTLTISNVQAEDLAVYYCQNDHSYPLTFGAGTKLELK
B6: TM-3 (antibody, V domains shown)
VH: QVTLKESGPGIVQPSQTLSLTCSFSGFSLNTLGRGVGWIRQPSGKGLEWLAKIWWNDDKFYYPALKSRLTISKDTSKNQIFLKIANVDTADSATYYCARIAGGTGAAYWGQGTTLTVSS
VL: DIVMTQAAFSNPVTLGTSASISCRSSKSLLHSNGITYLYWYLQKPGQSPQLLISQMSSLASGVPDRFSSGGSGTDFTLRISRVEAEDVGVFYCAQNLELPWTFGGGTKLELK
B7: TM-9 (antibody, V domains shown)
VH: EVQLVESGGDLVKPGGSLKLSCVASGFTFSGYGMSWVRQTPDKRLEWVATISSGSFYIYYPDSVKGRLTVSRDNAKNTLYLQMSSLKSEDTAIYYCARQNFYYGCEDYWGQGTTLTVSS
VL: B6 VL with S54Y, S58N, D65N, G70S, F91Y, L111I
B8: TM-10 (antibody, V domains shown)
VH: QVQLQQSGAELVKPGASVKISCKGSGYAFSSYWMNWVKQRPGKGLEWIGQIYPGDGDTNYNGKFKGKATLTADKSSTTAYIHLSSLTSEDSAVYFCARWGHYDEAMDDWGQGTSVTVSS
VL: DVVMTQTPLSLPVSLGDQASISCRSSQSLVHSNGKTYLHWYVQKPGQSPKLLIYKISNRFSGVPDRFSGSGSGTDFTLKISRVEAEDLGVYFCSQITHVPWTFGGGTKLESK
B9: TM-1 (antibody, V domains shown)
VH: QVQLQQSGAELVRPGTSVKVSCKASGYAFTNYLIEWVKQRPGQGLEWIGVINPGSGGTKYNEKLKGKATLTADKSSSTAYMQLSSLTSVDSAVYFCARRGYTIYDFYAMDYWGQGTSVTVSS
VL: DVLMTQTPLSLPVSLGDHASISCRSSQSIVYNNGNTYLEWYLQKPGQSPKLLIYKVSNRFSGVPDRFSGSGSGTDFTLKISRVEAEDLGVYYCFQVSHVPFTFGSGTKLEIK
B10: TM-31 (antibody, V domains shown)
VH: QVQLQQSGAELAKPGASVKVSCKASGYTFISYWMNWVKQRPGQGLEWIGYINPTSGYTRYNQKFKDKATLTADKSSSTAYMQLSSLTYEDSAVYYCARSPPTVVLIGYFDYWGQGTTLTVSS
VL: B2 VL with I21F, F49Y, A51G, R53G, L96F, G99A, A100S, M106I
notes: mouse IgG (hybridoma)
B11: TM-39 (antibody, V domains shown)
VH: HVQRQQSGTELAKPGASVKLSCKTSGYTFTDYWMHWIKQRPGQGLEWIGFINPSSGYTKYNQNFKDKATLTADKSSSTAYMQLSSLTYEDSAVFYCAREAGSISDWYFDVWGTGTTVTVSS
VL: DIVMTQAAPSIPVTPGESVSISCRSSKTLLNSNGNTYLYWFLQRPGQPPQLLIYRMSNLASGVPDRFSGSGSGTAFTLRISRVEAEDVGVYYCMQHLDYPYTFGGGTQLEIK
B12: TM-24 (antibody, V domains shown)
VH: QVQLKQSGPGQVQPSQSLSITCTVSGFSLSDYGVHWVRQSPGKGLEWLGVIWNNGNTDYNAAFISRLSINKDNSKSQVFFKMTSLQADDTAIYYCVRSLRPLHFDYWGQGTTVTVSS
VL: DIVMTQSPSSLTMSVGQKVTMNCKSSQSLLNSNNQQNYLAWYQQKPGQSPKLLVYFASIRESGVPDRFIGSGSGTDFTLTINSVQAEDLADYFCQQHYSTPFTFGSGTKLEIR
notes: mouse IgG (hybridoma)
B13: TM-32 (antibody, V domains shown)
VH: EVQLQQSGAELVRPGASVRLSCIASGFNIKDYYMYWVKQRPEQGLEWIGRIDPEDGDTEYVPKFQGKATMTADTSSNTAYLQLSSLTSEDIGVYYCTTRTWDLYYAVDNWGQGTSVTVSS
VL: B9 VL with H18Q, S28N, Y31H, N32S, Y54D, V90I, V96G
B14: TM-30 (antibody, V domains shown)
VH: QVQLQQSGPELVKPGASVKLSCKASDNTFTNYDVNWVRQRPGQGLEWIGWIYPRDGTTIYNEKFKGRATLTVDTSSSTAYMELHSLTSEDSAVFFCARTLPQAMDYWGQGTSVTVSS
VL: B9 VL with T7S, H18Q, A19V, S28T, Y31H, N32R, V96G, V99L, F101W, S105G
notes: mouse IgG (hybridoma)

These binders were tested against T1, human TMEM106B (human, UniProt Q9NUM4 2-274) (assay: FACS A549;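 further: flow cytometry of cells incubated on ice for 1 h with hybridoma supernatant or purified antibody at 10 µg/mL, dead propidium iodide-positive cells gated out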).
T1 construct: full-length, transiently expressed on HEK293 cells, or natively expressed on HeLa, U251 and A549 cells (the cell is named under assay); also the source of the Pepscan peptides; also called huTMEM106B; huTMEM
Protocol: (§1) All cells were cultured in either T75 or T150 flasks. […] The enzyme was quenched by addition of fresh media, and the cells were then distributed into 96-well plates for FACS analysis.
(§2) FACS analysis was performed as follows. Each cell type was aliquoted in 96-well round bottom plates (2×10^5 cells per well), washed once with FACS buffer (PBS+2% FBS+1 mM EDTA), and incubated with 50 μL of hybridoma supernatant or purified antibody (10 μg/ml in FACS buffer) on ice for 1 hour. […] Following this secondary incubation, the cells were again washed 2× with ice-cold FACS buffer and resuspended in a final volume of 50 μL of FACS buffer+0.25 μl/well propidium iodide (Fisher Scientific #4BDB556463). Analysis was performed on a FACSCanto system (BD Biosciences) or iQue (Intellicyt), with sort gates drawn to exclude dead (i.e., propidium iodide positive) cells.

Binder | MFI
B1 | 1100 MFI
B2 | 554 MFI
B3 | 1170 MFI
B4 | 1890 MFI
B5 | 647 MFI
B6 | 1800 MFI
B7 | 1990 MFI
B8 | 823 MFI
B9 | 1460 MFI

These binders were tested against T1, human TMEM106B (assay: FACS A549 10 ug/ml).
Protocol: (§3) Purified anti-TMEM106B antibodies were evaluated for their binding affinity to various TMEM106B-expressing cell lines including HEK293 transiently transfected with human/cyno/mouse TMEM106B, as well as HeLa cells and A549 cells. Antibodies tested for this experiment were mouse IgGs purified from hybridoma supernatant. Affinity binding to cells was determined as follows. Briefly, 1×10\hat{ }5 cells were aliquoted per well in 96-well round bottom plates and incubated with 50 μL of purified anti-TMEM106B antibody at various concentrations (10× dilutions starting at 10 μg/ml) in FACS buffer (PBS+2% FBS+1 mM EDTA). […] Sorting was performed on a iQue (Intellicyt), with sort gates drawn to exclude dead (propidium iodide+) cells. Binding data was analyzed using median fluorescent intensity (MFI) and graphed in Prism. Values presented are MFI.

Binder | MFI
B1 | 544 MFI
B2 | 492 MFI
B10 | 527 MFI
B3 | 4800 MFI
B11 | 5330 MFI
B4 | 3360 MFI
B5 | 1810 MFI
B6 | 7670 MFI
B7 | 7090 MFI
B8 | 1090 MFI
B12 | 4480 MFI
B9 | 409 MFI
B13 | 6100 MFI
B14 | 4040 MFI

These binders were tested against T1, human TMEM106B (assay: FACS U251).
Protocol: as §1, §2

Binder | MFI
B1 | 304 MFI
B2 | 304 MFI
B10 | 352 MFI
B3 | 866 MFI
B4 | 1410 MFI
B5 | 442 MFI
B6 | 1080 MFI
B7 | 1540 MFI
B8 | 328 MFI
B9 | 244 MFI

Each binder was assayed against T1, human TMEM106B (assay: FACS HEK+huTMEM 0.1 ug/ml;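 further: flow cytometry binding of purified mouse IgG antibodies to HEK293 cells transiently expressing TMEM106B, read as median fluorescence intensity on live cells (propidium iodide negative gating)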).
Protocol: as §3

Binder | MFI
B1 | 327 MFI
B2 | 305 MFI
B10 | 1390 MFI
B3 | 10800 MFI
B11 | 19200 MFI
B4 | 4730 MFI
B5 | 9870 MFI
B6 | 48700 MFI
B7 | 28300 MFI
B8 | 21000 MFI
B12 | 22000 MFI
B9 | 1330 MFI
B13 | 20300 MFI
B14 | 18400 MFI

These binders were tested against T1, human TMEM106B (assay: FACS HEK+huTMEM 0.1 ug/ml (2nd column so headed);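 further: flow cytometry binding of purified anti-TMEM106B mouse IgG to HEK293 cells transiently transfected with TMEM106B, read as median fluorescence intensity on live (propidium iodide-negative) cells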).

Binder | MFI
B1 | 294 MFI
B2 | 301 MFI
B10 | 596 MFI
B3 | 2180 MFI
B11 | 3850 MFI
B4 | 1440 MFI
B5 | 1670 MFI
B6 | 7700 MFI
B7 | 3940 MFI
B8 | 3360 MFI
B12 | 3620 MFI
B9 | 655 MFI
B13 | 4100 MFI
B14 | 3070 MFI

The binders below were run against T1, human TMEM106B (assay: FACS HEK+huTMEM 1.0 ug/ml;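 further: binding of purified mouse IgG antibodies to HEK293 cells transiently expressing human TMEM106B, read by flow cytometry as median fluorescence intensity of live, propidium iodide-negative cells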).
Protocol: as §3

Binder | MFI
B1 | 393 MFI
B2 | 317 MFI
B10 | 3680 MFI
B3 | 64500 MFI
B11 | 55600 MFI
B4 | 29300 MFI
B5 | 40000 MFI
B6 | 89100 MFI
B7 | 62100 MFI
B8 | 44400 MFI
B12 | 64500 MFI
B9 | 2010 MFI
B13 | 63300 MFI
B14 | 63500 MFI

What follows are binders tested against T1, human TMEM106B (assay: FACS HeLa).
Protocol: as §1, §2

Binder | MFI
B1 | 520 MFI
B2 | 568 MFI
B10 | 799 MFI
B3 | 1740 MFI
B4 | 2530 MFI
B5 | 1070 MFI
B6 | 2690 MFI
B7 | 2540 MFI
B8 | 596 MFI
B9 | 253 MFI

The binders below were run against T1, human TMEM106B (assay: FACS HEK+huTMEM 10 ug/ml;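 further: flow cytometric binding of purified mouse IgG antibodies to HEK293 cells transiently expressing human TMEM106B, read as median fluorescence intensity on live cells with propidium iodide-positive cells excluded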).
Protocol: as §3

Binder | MFI
B1 | 581 MFI
B2 | 465 MFI
B10 | 6060 MFI
B3 | 59300 MFI
B11 | 51900 MFI
B4 | 55500 MFI
B5 | 40800 MFI
B6 | 82300 MFI
B7 | 56400 MFI
B8 | 36500 MFI
B12 | 66300 MFI
B9 | 2380 MFI
B13 | 61100 MFI
B14 | 61500 MFI

The binders below were run against T2, mouse TMEM106B (mouse, UniProt Q80X71 2-275) (assay: FACS Neuro2a;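 further: flow cytometry of antibody binding to cells: hybridoma supernatant or purified antibody at 10 µg/ml, 1 h on ice, secondary detection, propidium iodide–positive dead cells gated out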).
T2 construct: transiently expressed on HEK293 cells, or native on mouse Neuro2a cells; also called moTMEM106B; murine TMEM106B
Protocol: as §1, §2

Binder | MFI
B1 | 371 MFI
B2 | 370 MFI
B10 | 325 MFI
B3 | 1610 MFI
B4 | 2900 MFI
B5 | 1200 MFI
B6 | 1980 MFI
B7 | 2710 MFI
B8 | 604 MFI
B9 | 253 MFI

Each binder was assayed against T1, human TMEM106B (assay: FACS A549 1 ug/ml).
Protocol: as §3

Binder | MFI
B1 | 418 MFI
B2 | 393 MFI
B10 | 403 MFI
B3 | 1970 MFI
B11 | 3610 MFI
B4 | 1090 MFI
B5 | 883 MFI
B6 | 4840 MFI
B7 | 4880 MFI
B8 | 663 MFI
B12 | 2880 MFI
B9 | 364 MFI
B13 | 3930 MFI
B14 | 3030 MFI

From patent publication US20200339680A1 (Alector, published 2020)
